Test results published in patent US20190375835A1.

How the values were obtained:
soluble TNF-alpha = soluble TNF-alpha (UniProt P01375); assay: cell-based or functional assay
macrophages (FcR) = assay: cell-based or functional assay

soluble TNF-alpha, sequence (P01375 77-233 limits assumed): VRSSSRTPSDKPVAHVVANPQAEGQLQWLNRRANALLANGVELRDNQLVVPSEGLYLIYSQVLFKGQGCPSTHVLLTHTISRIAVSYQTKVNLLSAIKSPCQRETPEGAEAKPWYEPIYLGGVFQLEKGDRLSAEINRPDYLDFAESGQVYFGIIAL

Row | Substance | phagocytosis value (MFI 37°C - MFI 4°C, arbitrary unit) (soluble TNF-alpha) | phagocytosis (MFI 37°C - MFI 4°C) in the presence of IVIg 1 mg/ml (macrophages (FcR))
1 | Humira antibody from Abbott (commercial adalimumab) | 12.5 MFI | 6.72 MFI
2 | transgenically produced adalimumab antibody (purified from the milk of transgenic goats, glycosylated) | 15 MFI | 13.3 MFI
